IntAct's records for PubMed 15066285

B1: Protein pop-1 (Caenorhabditis elegans), Q10666 (parent)
chain: MMADEELGDEVKVFRRDEDADDDPMISGETSEQQLADDKKEAVMEAELDGAGRNPSIDVLKSAFPKVEPMSPSFPGLMSHFSPGYSAAALPMFMPLFMNPYAAALRSPSLMFPMGAMSPTFPMFPPSPVYGAAIAAAAAKQHFENMAPLNMRAGHPMNQMGMPPYMHPSSMAPQNVDRRAQGGGKAKKDDHVKKPLNAFMWFMKENRKALLEEIGNNEKQSAELNKELGKRWHDLSKEEQAKYFEMAKKDKETHKERYPEWSARENYAVNKKKTKKRRDKSIPSENNDQKKCRARFGVNNTEMWCKFCKRKKKCEYATDRSGGSDITDSQDGRGTSGAYSSSSESPSPKANAGIALTTQQQQAAMMHTMLMQMRLGSTTGASTHVPSPLASSSAGRSPLDANASDSESDVEEEEDEQIDPTVMQQTHDMLMQESMCTI
partner: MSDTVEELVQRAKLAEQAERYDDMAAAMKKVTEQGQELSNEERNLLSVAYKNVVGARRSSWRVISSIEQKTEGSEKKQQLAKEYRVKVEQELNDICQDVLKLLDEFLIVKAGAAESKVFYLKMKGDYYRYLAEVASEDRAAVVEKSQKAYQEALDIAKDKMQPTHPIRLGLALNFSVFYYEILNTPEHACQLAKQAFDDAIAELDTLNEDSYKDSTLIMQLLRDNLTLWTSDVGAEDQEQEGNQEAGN

Variants of: B1
Conditions: with 14331_caeel par-5, P41932

| effect of a mutation on the interaction | Variant |
| --- | --- |
| disrupting interaction | MMADEELGDEVKVFRRDEDADDDPMISGETSEQQLADDKKEAVMEAELDGAGRNPSIDVLKSAFPKVEPMSPSFPGLMSHFSPGYSAAALPMFMPLFMNPYAAALRAPALMFPMGAMAPAFPMFPPAPVYGAAIAAAAAKQHFENMAPLNMRAGHPMNQMGMPPYMHPSSMAPQNVDRRAQGGGKAKKDDHVKKPLNAFMWFMKENRKALLEEIGNNEKQSAELNKELGKRWHDLSKEEQAKYFEMAKKDKETHKERYPEWSARENYAVNKKKTKKRRDKSIPSENNDQKKCRARFGVNNTEMWCKFCKRKKKCEYATDRSGGSDITDSQDGRGTSGAYSSSSESPSPKANAGIALTTQQQQAAMMHTMLMQMRLGSTTGASTHVPSPLASSSAGRSPLDANASDSESDVEEEEDEQIDPTVMQQTHDMLMQESMCTI [S107A;S109A;S118A;T120A;S127A] |
